Data: patent US20230416361A1

B1: Antibody I-4P (antibody, human IgG4 S228P, kappa, V domains shown)
VH: QVQLVQSGAEVKKPGASVKVSCKASGFSFSSGYYMAWVRQAPGQGLEWMGLIGVGSGSLWYAQKFQGRVTMTRDTSTSTVYMELSSLRSEDTAVYYCARHFALSDPFNLWGQGTLVTVSS
VL: EIVLTQSPDFQSVTPKEKVTITCQASESIDSYLLWYQQKPDQSPKLLIKQASTLASGVPSRFSGSGSGTDFTLTINSLEAEDAATYYCQNYYDISSNDFGGGTKVEIKR
B2: anti-CD200R antibody clone 21.3.1 (mIgG1k isotype) (antibody, V domains shown)
VH: QVQLQQPGSELVRPGASVKLSCKASGHTFTSYWMHWVKQRPGQGLEWIGNIYPGSGSINYDEKFKSKAKLTVDTSSRTAYMQLSSLTSEDSAVYYCLTMTGTSWGQGTLVTVSA
VL: DVQMIQSPSSLSASLGDIVTMTCQASQGTPINLHWFQQKPGKAPKLLISGASNLEDGVPSRFSGSRYGTAFTLTISSLEDEDMATYFCLQFTYIPWTFGGGTKLEIKR
B3: hu2131_Q1E_M99G hIgG1k P238D (antibody, V domains shown)
VH: EVQLVQSGAEVKKPGASVKVSCKASGHTFTSYWMHWVRQAPGQGLEWMGNIYPGSGSINYDEKFQGRVTMTADTSTSTVYMELSSLRSEDTAVYYCLTGTGTSWGRGTLVTVSS
VL: DIQMTQSPSSLSVSVGDRVTITCQASQGTPINLHWFQQKPGKAPKLLISGASNLESGVPSRFSGSGSGTEFTFTISSLQPEDAATYYCLQFTYIPWTFGQGTKLEIKR

Key:
[1] = biological target: human CD200R expressed on cells (human) (UniProt Q8TD46)
[2] = biological target: human CD200R expressed on cells (human) (UniProt Q8TD46); experiment: cell-based or functional assay
[3] = biological target: human CD200R expressed on cells (human) (UniProt Q8TD46); experiment: flow cytometry on Jurkat T cells expressing human CD200R, 24 h at 37 C, PE anti-hIgG secondary
[4] = biological target: human CD200R expressed on cells (human) (UniProt Q8TD46); experiment: flow cytometry on Jurkat T cells lentivirally expressing human CD200R, 24 h at 37 C, PE anti-hIgG secondary antibody, geometric MFI, non-linear curve fit
[5] = biological target: extracellular domain of human CD200R (Met29-Leu243) (human) (UniProt Q8TD46); experiment: SPR (Biacore), antibody captured by anti-human Fc, CD200R extracellular domain injected, single cycle kinetics, 25 C

Binder	EC50 of DOK2 recruitment to CD200R, enzyme fragment complementation luminescence, PathHunter Jurkat CD200R cells co-cultured with FcgRIIb-expressing HEK293 cells [1]	Average % inhibition of SEAP activity at Log [Antibody], M = -8.18 [2]	Average % inhibition of SEAP activity at Log [Antibody], M = -8.8 [2]	Average % inhibition of SEAP activity at Log [Antibody], M = -9.57 [2]	Average % inhibition of SEAP activity at Log [Antibody], M = -10.27 [2]	Average % inhibition of SEAP activity at Log [Antibody], M = -10.9 [2]	Average % inhibition of SEAP activity at Log [Antibody], M = -11.6 [2]	Average % inhibition of SEAP activity at Log [Antibody], M = -12.3 [2]	EC50 of Dok2 recruitment to human CD200R (enzyme fragment complementation, PathHunter Jurkat CD200R cells co-cultured with FcγRIIb HEK293 cells) [2]	IC50 of inhibition of NF-kB-inducible SEAP reporter activity in CD200R-expressing THP-1 dual cells [2]	average maximal percentage inhibition (Emax) of SEAP activity [2]	EC50 [3]	EC50 [4]	Kd [5]	koff [5]	kon [5]
B1	1140 pM	22.3%	20.9%	16.1%	7.7%	3.2%	2.2%	3.1%	1.1 nM	0.134 nM	19.9%	3.4 nM	3.43 nM			
B2		35.3%	28.3%	23.4%	9.8%	1.1%	1%	1.7%		0.141 nM	33.2%					
B3	437 pM								0.44 nM			0.53 nM		< 0.0193 nM	< 1e-05 s⁻¹	517000 M⁻¹ s⁻¹
